Laboratory results as given in the supplement of paper PMC10567573.

B1: P2RY14 (parent)
chain: KLLSVIVWMLMLLLAVPNIILTNQ

Variants of: B1
Assay: protein stability index of a GFP-peptide fusion (GPS, HEK-293T) (PSI 1-6); higher = more stable
Conditions: c terminus: a fixed tail appended
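Further: lentivirally expressed fusions sorted by FACS into six bins by GFP to DsRed ratio, PSI derived from sequencing read proportions per bin multiplied by bin number.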

Variant	protein stability index
KLLSVPVWMLMLLLAVPNIILTNQ [I6P]	1.89
KLLSVRVWMLMLLLAVPNIILTNQ [I6R]	2.43
KLLSVSVWMLMLLLAVPNIILTNQ [I6S]	2.39
KLLSVTVWMLMLLLAVPNIILTNQ [I6T]	2.48
KLLSVVVWMLMLLLAVPNIILTNQ [I6V]	4.09
KLLSVWVWMLMLLLAVPNIILTNQ [I6W]	2.02
KLLSVIAWMLMLLLAVPNIILTNQ [V7A]	2.07
KLLSVIDWMLMLLLAVPNIILTNQ [V7D]	3.57
KLLSVIEWMLMLLLAVPNIILTNQ [V7E]	2.65
KLLSVIFWMLMLLLAVPNIILTNQ [V7F]	2.12
KLLSVIHWMLMLLLAVPNIILTNQ [V7H]	2.11
KLLSVIKWMLMLLLAVPNIILTNQ [V7K]	4.05
KLLSVIMWMLMLLLAVPNIILTNQ [V7M]	3.08
KLLSVIPWMLMLLLAVPNIILTNQ [V7P]	2.8
KLLSVIQWMLMLLLAVPNIILTNQ [V7Q]	2.74
KLLSVIRWMLMLLLAVPNIILTNQ [V7R]	2.31
KLLSVISWMLMLLLAVPNIILTNQ [V7S]	2.28
KLLSVITWMLMLLLAVPNIILTNQ [V7T]	3.76
KLLSVIWWMLMLLLAVPNIILTNQ [V7W]	4.44
KLLSVIYWMLMLLLAVPNIILTNQ [V7Y]	3.99
KLLSVIVCMLMLLLAVPNIILTNQ [W8C]	1.95
KLLSVIVEMLMLLLAVPNIILTNQ [W8E]	3.97
KLLSVIVFMLMLLLAVPNIILTNQ [W8F]	2.3
KLLSVIVGMLMLLLAVPNIILTNQ [W8G]	2.81

Variant	protein stability index
KLLSVIVHMLMLLLAVPNIILTNQ [W8H]	2.85
KLLSVIVIMLMLLLAVPNIILTNQ [W8I]	3.03
KLLSVIVKMLMLLLAVPNIILTNQ [W8K]	3.73
KLLSVIVLMLMLLLAVPNIILTNQ [W8L]	1.76
KLLSVIVMMLMLLLAVPNIILTNQ [W8M]	3.83
KLLSVIVNMLMLLLAVPNIILTNQ [W8N]	2.41
KLLSVIVPMLMLLLAVPNIILTNQ [W8P]	1.85
KLLSVIVQMLMLLLAVPNIILTNQ [W8Q]	1.99
KLLSVIVRMLMLLLAVPNIILTNQ [W8R]	2.67
KLLSVIVTMLMLLLAVPNIILTNQ [W8T]	3.35
KLLSVIVVMLMLLLAVPNIILTNQ [W8V]	2.86
KLLSVIVYMLMLLLAVPNIILTNQ [W8Y]	2.21
KLLSVIVWALMLLLAVPNIILTNQ [M9A]	3.79
KLLSVIVWDLMLLLAVPNIILTNQ [M9D]	4.27
KLLSVIVWELMLLLAVPNIILTNQ [M9E]	2.68
KLLSVIVWGLMLLLAVPNIILTNQ [M9G]	2.87
KLLSVIVWKLMLLLAVPNIILTNQ [M9K]	3.05
KLLSVIVWLLMLLLAVPNIILTNQ [M9L]	3.19
KLLSVIVWNLMLLLAVPNIILTNQ [M9N]	2.1
KLLSVIVWQLMLLLAVPNIILTNQ [M9Q]	3.1
KLLSVIVWSLMLLLAVPNIILTNQ [M9S]	3.82
KLLSVIVWWLMLLLAVPNIILTNQ [M9W]	2.15
KLLSVIVWMCMLLLAVPNIILTNQ [L10C]	1.39
KLLSVIVWMDMLLLAVPNIILTNQ [L10D]	2.5

Variant	protein stability index
KLLSVIVWMEMLLLAVPNIILTNQ [L10E]	4.43
KLLSVIVWMFMLLLAVPNIILTNQ [L10F]	3.32
KLLSVIVWMGMLLLAVPNIILTNQ [L10G]	2.08
KLLSVIVWMHMLLLAVPNIILTNQ [L10H]	3.63
KLLSVIVWMIMLLLAVPNIILTNQ [L10I]	3.19
KLLSVIVWMMMLLLAVPNIILTNQ [L10M]	3.84
KLLSVIVWMNMLLLAVPNIILTNQ [L10N]	1.95
KLLSVIVWMPMLLLAVPNIILTNQ [L10P]	2.86
KLLSVIVWMQMLLLAVPNIILTNQ [L10Q]	3.16
KLLSVIVWMSMLLLAVPNIILTNQ [L10S]	4.89
KLLSVIVWMTMLLLAVPNIILTNQ [L10T]	3.58
KLLSVIVWMVMLLLAVPNIILTNQ [L10V]	2.99
KLLSVIVWMWMLLLAVPNIILTNQ [L10W]	2.31
KLLSVIVWMYMLLLAVPNIILTNQ [L10Y]	3.48
KLLSVIVWMLALLLAVPNIILTNQ [M11A]	2.06
KLLSVIVWMLDLLLAVPNIILTNQ [M11D]	4.89
KLLSVIVWMLELLLAVPNIILTNQ [M11E]	2.06
KLLSVIVWMLFLLLAVPNIILTNQ [M11F]	3.31
KLLSVIVWMLHLLLAVPNIILTNQ [M11H]	3
KLLSVIVWMLILLLAVPNIILTNQ [M11I]	3.17
KLLSVIVWMLKLLLAVPNIILTNQ [M11K]	2.5
KLLSVIVWMLNLLLAVPNIILTNQ [M11N]	2.42
KLLSVIVWMLPLLLAVPNIILTNQ [M11P]	3.16
KLLSVIVWMLQLLLAVPNIILTNQ [M11Q]	1.1

Variant	protein stability index
KLLSVIVWMLRLLLAVPNIILTNQ [M11R]	2.58
KLLSVIVWMLSLLLAVPNIILTNQ [M11S]	2.01
KLLSVIVWMLVLLLAVPNIILTNQ [M11V]	3.42
KLLSVIVWMLWLLLAVPNIILTNQ [M11W]	2.89
KLLSVIVWMLYLLLAVPNIILTNQ [M11Y]	2.38
KLLSVIVWMLMALLAVPNIILTNQ [L12A]	2.7
KLLSVIVWMLMCLLAVPNIILTNQ [L12C]	3.75
KLLSVIVWMLMDLLAVPNIILTNQ [L12D]	2.65
KLLSVIVWMLMFLLAVPNIILTNQ [L12F]	2.59
KLLSVIVWMLMGLLAVPNIILTNQ [L12G]	3.74
KLLSVIVWMLMHLLAVPNIILTNQ [L12H]	2.22
KLLSVIVWMLMMLLAVPNIILTNQ [L12M]	3.06
KLLSVIVWMLMNLLAVPNIILTNQ [L12N]	2.32
KLLSVIVWMLMPLLAVPNIILTNQ [L12P]	3.18
KLLSVIVWMLMQLLAVPNIILTNQ [L12Q]	2.51
KLLSVIVWMLMRLLAVPNIILTNQ [L12R]	2.69
KLLSVIVWMLMLALAVPNIILTNQ [L13A]	2.98
KLLSVIVWMLMLDLAVPNIILTNQ [L13D]	3.11
KLLSVIVWMLMLFLAVPNIILTNQ [L13F]	3.72
KLLSVIVWMLMLGLAVPNIILTNQ [L13G]	2.79
KLLSVIVWMLMLHLAVPNIILTNQ [L13H]	4.28
KLLSVIVWMLMLILAVPNIILTNQ [L13I]	1.81
KLLSVIVWMLMLKLAVPNIILTNQ [L13K]	1.78
KLLSVIVWMLMLNLAVPNIILTNQ [L13N]	3.02

Variant	protein stability index
KLLSVIVWMLMLPLAVPNIILTNQ [L13P]	3.47
KLLSVIVWMLMLRLAVPNIILTNQ [L13R]	2.15
KLLSVIVWMLMLSLAVPNIILTNQ [L13S]	3.29
KLLSVIVWMLMLTLAVPNIILTNQ [L13T]	2.38
KLLSVIVWMLMLVLAVPNIILTNQ [L13V]	1.84
KLLSVIVWMLMLYLAVPNIILTNQ [L13Y]	3.48
KLLSVIVWMLMLLAAVPNIILTNQ [L14A]	2.24
KLLSVIVWMLMLLCAVPNIILTNQ [L14C]	2.41
KLLSVIVWMLMLLDAVPNIILTNQ [L14D]	3.07
KLLSVIVWMLMLLEAVPNIILTNQ [L14E]	3.48
KLLSVIVWMLMLLGAVPNIILTNQ [L14G]	2.27
KLLSVIVWMLMLLHAVPNIILTNQ [L14H]	2.92
KLLSVIVWMLMLLIAVPNIILTNQ [L14I]	2.49
KLLSVIVWMLMLLKAVPNIILTNQ [L14K]	2.95
KLLSVIVWMLMLLMAVPNIILTNQ [L14M]	3.33
KLLSVIVWMLMLLNAVPNIILTNQ [L14N]	2.75
KLLSVIVWMLMLLPAVPNIILTNQ [L14P]	4.16
KLLSVIVWMLMLLSAVPNIILTNQ [L14S]	3.42
KLLSVIVWMLMLLTAVPNIILTNQ [L14T]	3.16
KLLSVIVWMLMLLVAVPNIILTNQ [L14V]	1.32
KLLSVIVWMLMLLWAVPNIILTNQ [L14W]	2.51
KLLSVIVWMLMLLLCVPNIILTNQ [A15C]	3.31
KLLSVIVWMLMLLLDVPNIILTNQ [A15D]	3.06
KLLSVIVWMLMLLLEVPNIILTNQ [A15E]	2.84

Variant	protein stability index
KLLSVIVWMLMLLLHVPNIILTNQ [A15H]	3.28
KLLSVIVWMLMLLLKVPNIILTNQ [A15K]	3.74
KLLSVIVWMLMLLLLVPNIILTNQ [A15L]	2.56
KLLSVIVWMLMLLLMVPNIILTNQ [A15M]	3.03
KLLSVIVWMLMLLLNVPNIILTNQ [A15N]	3.1
KLLSVIVWMLMLLLPVPNIILTNQ [A15P]	2.35
KLLSVIVWMLMLLLQVPNIILTNQ [A15Q]	3.12
KLLSVIVWMLMLLLVVPNIILTNQ [A15V]	2.77
KLLSVIVWMLMLLLWVPNIILTNQ [A15W]	2.2
KLLSVIVWMLMLLLAAPNIILTNQ [V16A]	2.77
KLLSVIVWMLMLLLACPNIILTNQ [V16C]	3.32
KLLSVIVWMLMLLLADPNIILTNQ [V16D]	2.52
KLLSVIVWMLMLLLAEPNIILTNQ [V16E]	2.6
KLLSVIVWMLMLLLAFPNIILTNQ [V16F]	4.27
KLLSVIVWMLMLLLAGPNIILTNQ [V16G]	2.36
KLLSVIVWMLMLLLAHPNIILTNQ [V16H]	2.06
KLLSVIVWMLMLLLAIPNIILTNQ [V16I]	3.43
KLLSVIVWMLMLLLALPNIILTNQ [V16L]	3.59
KLLSVIVWMLMLLLAMPNIILTNQ [V16M]	3.43
KLLSVIVWMLMLLLANPNIILTNQ [V16N]	3.98
KLLSVIVWMLMLLLAPPNIILTNQ [V16P]	2.75
KLLSVIVWMLMLLLAQPNIILTNQ [V16Q]	3.43
KLLSVIVWMLMLLLASPNIILTNQ [V16S]	2.89
KLLSVIVWMLMLLLATPNIILTNQ [V16T]	2.01

Variant	protein stability index
KLLSVIVWMLMLLLAVANIILTNQ [P17A]	2.56
KLLSVIVWMLMLLLAVCNIILTNQ [P17C]	2.41
KLLSVIVWMLMLLLAVDNIILTNQ [P17D]	2.68
KLLSVIVWMLMLLLAVENIILTNQ [P17E]	3
KLLSVIVWMLMLLLAVFNIILTNQ [P17F]	2.69
KLLSVIVWMLMLLLAVGNIILTNQ [P17G]	3.39
KLLSVIVWMLMLLLAVHNIILTNQ [P17H]	2.96
KLLSVIVWMLMLLLAVINIILTNQ [P17I]	1.95
KLLSVIVWMLMLLLAVKNIILTNQ [P17K]	3.35
KLLSVIVWMLMLLLAVLNIILTNQ [P17L]	2.97
KLLSVIVWMLMLLLAVMNIILTNQ [P17M]	1.52
KLLSVIVWMLMLLLAVNNIILTNQ [P17N]	2.08
KLLSVIVWMLMLLLAVQNIILTNQ [P17Q]	2.82
KLLSVIVWMLMLLLAVRNIILTNQ [P17R]	2.8
KLLSVIVWMLMLLLAVSNIILTNQ [P17S]	3.12
KLLSVIVWMLMLLLAVTNIILTNQ [P17T]	2.4
KLLSVIVWMLMLLLAVVNIILTNQ [P17V]	1.23
KLLSVIVWMLMLLLAVWNIILTNQ [P17W]	1.98
KLLSVIVWMLMLLLAVYNIILTNQ [P17Y]	1.54
KLLSVIVWMLMLLLAVPAIILTNQ [N18A]	1.99
KLLSVIVWMLMLLLAVPCIILTNQ [N18C]	2.1
KLLSVIVWMLMLLLAVPEIILTNQ [N18E]	2.5
KLLSVIVWMLMLLLAVPFIILTNQ [N18F]	2.16
KLLSVIVWMLMLLLAVPGIILTNQ [N18G]	3.62

Variant	protein stability index
KLLSVIVWMLMLLLAVPHIILTNQ [N18H]	3.81
KLLSVIVWMLMLLLAVPIIILTNQ [N18I]	2.63
KLLSVIVWMLMLLLAVPKIILTNQ [N18K]	2.59
KLLSVIVWMLMLLLAVPLIILTNQ [N18L]	1.65
KLLSVIVWMLMLLLAVPPIILTNQ [N18P]	2.78
KLLSVIVWMLMLLLAVPRIILTNQ [N18R]	1.49
KLLSVIVWMLMLLLAVPTIILTNQ [N18T]	2.89
KLLSVIVWMLMLLLAVPVIILTNQ [N18V]	1.58
KLLSVIVWMLMLLLAVPWIILTNQ [N18W]	1.92
KLLSVIVWMLMLLLAVPYIILTNQ [N18Y]	2.09
KLLSVIVWMLMLLLAVPNAILTNQ [I19A]	3.24
KLLSVIVWMLMLLLAVPNDILTNQ [I19D]	2.8
KLLSVIVWMLMLLLAVPNFILTNQ [I19F]	2.98
KLLSVIVWMLMLLLAVPNKILTNQ [I19K]	1.76
KLLSVIVWMLMLLLAVPNMILTNQ [I19M]	1.29
KLLSVIVWMLMLLLAVPNNILTNQ [I19N]	3.66
KLLSVIVWMLMLLLAVPNPILTNQ [I19P]	3.43
KLLSVIVWMLMLLLAVPNQILTNQ [I19Q]	1.89
KLLSVIVWMLMLLLAVPNRILTNQ [I19R]	2.2
KLLSVIVWMLMLLLAVPNSILTNQ [I19S]	2.07
